Data published in US11504441B2, “Radiolabeled compounds targeting the prostate-specific membrane antigen” (PROVINCIAL HEALTH SERVICES AUTHORITY, priority 2019, dated 2022).

Test: in vivo
Design: species or system mice
Conditions: male, NODSCID 1L2RγKO, mouse, iv, total radioactivity

## COc1ccc(CCCC(=O)NCC(=O)N[C@@H](CCCCNC(=O)CN2CCN(CC(=O)O)CCN(CC(=O)O)CCN(CC(=O)O)CC2)C(=O)NC[C@H]2CC[C@H](C(=O)N[C@@H](Cc3c4ccccc4cc4ccccc34)C(=O)NCCCC[C@H](NC(=O)N[C@@H](COCC(=O)O)C(=O)O)C(=O)O)CC2)cc1 [177Lu-HTK04028, metal not drawn]
Adrenal glands uptake
  tissue uptake at 1 h: 3.25 ± 0.34 %ID/g
  tissue uptake at 4 h: 2.18 ± 0.33 %ID/g
  tissue uptake at 24 h: 0.73 ± 0.13 %ID/g
  tissue uptake at 72 h: 0.48 ± 0.17 %ID/g
  tissue uptake at 120 h: 0.33 ± 0.05 %ID/g
Blood uptake
  tissue uptake at 1 h: 17.7 ± 2.1 %ID/g
  tissue uptake at 4 h: 12.2 ± 1.66 %ID/g
  tissue uptake at 24 h: 0.82 ± 0.11 %ID/g
  tissue uptake at 72 h: 0.05 ± 0.01 %ID/g
  tissue uptake at 120 h: 0.02 %ID/g
Bone uptake
  tissue uptake at 1 h: 0.99 ± 0.21 %ID/g
  tissue uptake at 4 h: 0.63 ± 0.1 %ID/g
  tissue uptake at 24 h: 0.11 ± 0.02 %ID/g
  tissue uptake at 72 h: 0.05 ± 0.02 %ID/g
  tissue uptake at 120 h: 0.04 ± 0.02 %ID/g
Brain uptake
  tissue uptake at 1 h: 0.26 ± 0.03 %ID/g
  tissue uptake at 4 h: 0.19 ± 0.02 %ID/g
  tissue uptake at 24 h: 0.02 %ID/g
  tissue uptake at 72 h: 0.01 %ID/g
Fat uptake
  tissue uptake at 1 h: 1.26 ± 0.21 %ID/g
  tissue uptake at 4 h: 0.89 ± 0.24 %ID/g
  tissue uptake at 24 h: 0.14 ± 0.02 %ID/g
  tissue uptake at 72 h: 0.06 ± 0.02 %ID/g
  tissue uptake at 120 h: 0.03 ± 0.01 %ID/g
Heart uptake
  tissue uptake at 1 h: 4.15 ± 0.31 %ID/g
  tissue uptake at 4 h: 2.67 ± 0.31 %ID/g
  tissue uptake at 24 h: 0.36 ± 0.03 %ID/g
  tissue uptake at 72 h: 0.12 ± 0.03 %ID/g
  tissue uptake at 120 h: 0.07 ± 0.01 %ID/g
Intestine uptake
  tissue uptake at 1 h: 1.23 ± 0.24 %ID/g
  tissue uptake at 4 h: 1.04 ± 0.12 %ID/g
  tissue uptake at 24 h: 0.23 ± 0.05 %ID/g
  tissue uptake at 72 h: 0.07 ± 0.03 %ID/g
  tissue uptake at 120 h: 0.08 ± 0.05 %ID/g
Kidneys uptake
  tissue uptake at 1 h: 8.3 ± 1.58 %ID/g
  tissue uptake at 4 h: 9.21 ± 2.76 %ID/g
  tissue uptake at 24 h: 4.32 ± 0.58 %ID/g
  tissue uptake at 72 h: 1.77 ± 0.25 %ID/g
  tissue uptake at 120 h: 1.16 ± 0.13 %ID/g
Lacrimal uptake
  tissue uptake at 1 h: 0.51 ± 0.23 %ID/g
  tissue uptake at 4 h: 0.39 ± 0.19 %ID/g
  tissue uptake at 24 h: 0.05 ± 0.04 %ID/g
  tissue uptake at 72 h: 0.01 ± 0.01 %ID/g
Liver uptake
  tissue uptake at 1 h: 2.93 ± 0.51 %ID/g
  tissue uptake at 4 h: 2.29 ± 0.55 %ID/g
  tissue uptake at 24 h: 0.54 ± 0.09 %ID/g
  tissue uptake at 72 h: 0.22 ± 0.02 %ID/g
  tissue uptake at 120 h: 0.31 ± 0.3 %ID/g
Lungs uptake
  tissue uptake at 1 h: 7.88 ± 1.77 %ID/g
  tissue uptake at 4 h: 5.79 ± 0.44 %ID/g
  tissue uptake at 24 h: 1.08 ± 0.72 %ID/g
  tissue uptake at 72 h: 0.18 ± 0.02 %ID/g
  tissue uptake at 120 h: 0.09 ± 0.01 %ID/g
Muscle uptake
  tissue uptake at 1 h: 1.32 ± 0.19 %ID/g
  tissue uptake at 4 h: 0.83 ± 0.09 %ID/g
  tissue uptake at 24 h: 0.11 ± 0.02 %ID/g
  tissue uptake at 72 h: 0.03 ± 0.01 %ID/g
  tissue uptake at 120 h: 0.02 %ID/g
Pancreas uptake
  tissue uptake at 1 h: 1.53 ± 0.22 %ID/g
  tissue uptake at 4 h: 1.24 ± 0.04 %ID/g
  tissue uptake at 24 h: 0.15 ± 0.02 %ID/g
  tissue uptake at 72 h: 0.05 ± 0.01 %ID/g
  tissue uptake at 120 h: 0.03 %ID/g
Salivary uptake
  tissue uptake at 1 h: 2.55 ± 0.21 %ID/g
  tissue uptake at 4 h: 1.75 ± 0.25 %ID/g
  tissue uptake at 24 h: 0.45 ± 0.1 %ID/g
  tissue uptake at 72 h: 0.19 ± 0.05 %ID/g
  tissue uptake at 120 h: 0.11 ± 0.03 %ID/g
Seminal uptake
  tissue uptake at 1 h: 1.53 ± 0.97 %ID/g
  tissue uptake at 4 h: 0.9 ± 0.2 %ID/g
  tissue uptake at 24 h: 0.12 ± 0.02 %ID/g
  tissue uptake at 72 h: 0.05 ± 0.01 %ID/g
  tissue uptake at 120 h: 0.05 ± 0.03 %ID/g
Spleen uptake
  tissue uptake at 1 h: 1.53 ± 0.23 %ID/g
  tissue uptake at 4 h: 1.44 ± 0.31 %ID/g
  tissue uptake at 24 h: 0.48 ± 0.14 %ID/g
  tissue uptake at 72 h: 0.49 ± 0.16 %ID/g
  tissue uptake at 120 h: 0.69 ± 0.36 %ID/g
Stomach uptake
  tissue uptake at 1 h: 0.51 ± 0.18 %ID/g
  tissue uptake at 4 h: 0.45 ± 0.06 %ID/g
  tissue uptake at 24 h: 0.31 ± 0.1 %ID/g
  tissue uptake at 72 h: 0.07 ± 0.07 %ID/g
  tissue uptake at 120 h: 0.1 ± 0.1 %ID/g
Tail uptake
  tissue uptake at 1 h: 4.85 ± 1.59 %ID/g
  tissue uptake at 4 h: 2.21 ± 0.18 %ID/g
  tissue uptake at 24 h: 0.31 ± 0.1 %ID/g
  tissue uptake at 72 h: 0.15 ± 0.04 %ID/g
  tissue uptake at 120 h: 0.1 ± 0.03 %ID/g
Testes uptake
  tissue uptake at 1 h: 2.26 ± 0.46 %ID/g
  tissue uptake at 4 h: 2.66 ± 0.41 %ID/g
  tissue uptake at 24 h: 0.55 ± 0.05 %ID/g
  tissue uptake at 72 h: 0.31 ± 0.05 %ID/g
  tissue uptake at 120 h: 0.22 ± 0.01 %ID/g
Thyroid uptake
  tissue uptake at 1 h: 3.3 ± 0.42 %ID/g
  tissue uptake at 4 h: 2.3 ± 0.3 %ID/g
  tissue uptake at 24 h: 0.52 ± 0.08 %ID/g
  tissue uptake at 72 h: 0.24 ± 0.04 %ID/g
  tissue uptake at 120 h: 0.13 ± 0.02 %ID/g
Tumor uptake
  tissue uptake at 1 h: 19 ± 5.86 %ID/g
  tissue uptake at 4 h: 42.6 ± 11.6 %ID/g
  tissue uptake at 24 h: 30.2 ± 2.74 %ID/g
  tissue uptake at 72 h: 26.1 ± 7.29 %ID/g
  tissue uptake at 120 h: 28.4 ± 5.11 %ID/g
